# Results from US20240002516A1 (4B TECHNOLOGIES SUZHOU, published 2024).
# Numbering of substitutions follows the chain as printed.
# B1: muPHD48 (antibody, V domains shown)
# VH: EVQLQQSGTVLARPGASVKMSCKASGYSFTTYWMHWVKQRPGQGLEWIGTIYPGNSDSSNNQKFKGKAKLTAVTSASTAYMELSSLTNEDSAVYYCTRFYYEDWYFDVWGAGTTVTVSS
# VL: QIVLTQSPAIMSASPGEKVTISCSASSSVSYMYWFQQKPGSSPKPWIYRTSNLASGVPARFSGSGSGTSYSLTISSMEAEDAATYYCQQYHSYPPTFGGGTKLEIK
# notes: Mouse hybridoma monoclonal antibody
# B2: PHD29 (antibody, V domains shown)
# VH: QVQLVQSGAEVKKPGASVKVSCKASGYTFTTYWMHWVRQAPGQGLEWIGTIYPGNSDTSFAQKFQGRVTLTRDTSTSTAYMELSSLRSEDTAVYYCTRFYFEDWYFDVWGQGTTVTVSS
# VL: DIQMTQSPSSLSASVGDRVTITCRASSSISWLYWFQQKPGKAPKPLIYYTSSLGSGVPSRFSGSGSGTDYTLTISSLQPEDFATYYCQQWHSYPPTFGGGTKVEIK
# B3: PHD49-05 (antibody, V domains shown)
# VH: QVQLVQSGAEVKKPGSSVKVSCKASGYTFSSHWIQWVRQAPGQGLEWIGAIYPGDDDTIYTQKFQGRATITTDKSTSTAYMELSSLRSEDTAVYYCARNYDYQAWFAYWGQGTLVTVSS
# VL: B2 VL with I29V, W31Y, F35Y, Y49L, G54A, H91S, Y93N, P95L, G99Q, V103L
# B4: PHD28 (antibody, V domains shown)
# VH: B2 VH with F60L
# VL: B2 VL
# B5: PHD24 (antibody, V domains shown)
# VH: B2 VH with F60L
# VL: B2 VL with S52T
# B6: PHD49-11 (antibody, IgG4, V domains shown)
# VH: B3 VH with H32Y, I34M, Q65K, T72A
# VL: DIQMTQSPSSLSASVGDRVTITCRASSSVSYLYWYQQKPGKAPKPWIYLTSNLASGVPSRFSGSGSGTDYTLTISSLQPEDFATYYCQQWSSNPLTFGQGTKLEIK
# B7: PHD48 (antibody, V domains shown)
# VH: B2 VH with T58S, F60N, F101Y
# VL: B2 VL with I29V, W31Y, Y49R, S52N, G54A, W90Y
# notes: also called full-length PHD48 antibody
# B8: PHD26 (antibody, V domains shown)
# VH: B2 VH with T31E, F60Y
# VL: B2 VL
# B9: PHD49-21 (antibody, V domains shown)
# VH: B3 VH with Y27F, H32Y, P53T, D56G, K74E, D101H, A107D
# VL: B6 VL with W46L, N52D
# B10: PHD25 (antibody, V domains shown)
# VH: B2 VH
# VL: B2 VL with S52T
# B11: PHD22 (antibody, V domains shown)
# VH: B2 VH with T31E, F60Y
# VL: B2 VL with S52T
# B12: PHD30 (antibody, V domains shown)
# VH: B2 VH with T31E, T58S, F101Y
# VL: B2 VL with W31Y, Y49R, W90Y
# B13: PHD48-08 (antibody, IgG4, V domains shown)
# VH: B2 VH with T58S, F60N, R72A, F101Y
# VL: B2 VL with I29V, W31Y, Y49R, S52N, G54A, W90Y
# B14: PHD49 (antibody, V domains shown)
# VH: B3 VH with Y27F, H32Y, P53T, D56G, K74E, D101H, A107D
# VL: B6 VL with W46L, N52S
# B15: muPHD50 (antibody, V domains shown)
# VH: EVQLQQSGTVLARPGASVKMSCKASGYIFTSYWMHWVKQRPGQGLEWIGAIYPGDSDTNYNQKFKGKAKLTAVTSASTAYMELSSLTNEDSAVYYCTRYGNYAGYYHMDYWGQGTSVTVSS
# VL: QIVLTQSPALMSASPGEKVTMTCSASSSVSYIYWYQQKPRSSPKPWIYLTSNLASGVPARFSGSGSGTSYSLTISSMEAEDAATYYCQQWSSNPLTFGAGTKLELK
# notes: Mouse hybridoma monoclonal antibody; also called muPHID50
# Assays:
# [1] = target: T1, human TrkA on CellSensor TrkA-NFAT-bla CHO-K1 cells (human, UniProt P04629 33-796); assay: FACS on CellSensor TrkA-NFAT-bla CHO-K1 cells (human TrkA), APC goat anti-mouse IgG
# T1 construct: whole, on cells; Bought cell line; also called cells overexpressing human TrkA
# Procedure: (§1) The ELISA-positive antibody producing clones were further verified by fluorescence-activated cell sorting (FACS) using a conventional method. Briefly, CellSensor® TrkA-NFAT-bla CHO-K1 cells (cells overexpressing human TrkA) were stained with anti-TrkA antibody in U-bottom 96-well plates. The cells were resuspended to 2×10⁶ cells/ml in ice cold PBS. The diluted solutions of primary and secondary antibodies were prepared, and 100 μl of the diluted primary antibody was added in each well, and incubated for 1 hours at 4° C. in the dark. The cells were washed for 2 times by centrifugation at 2500 rpm for 3 min and resuspended in ice cold PBS. The APC Goat anti-Mouse IgG was diluted in cold PBS at the […] and then the cells were resuspended in 100 μl of this solution. The cells were washed for 2 times by centrifugation at 2500 rpm for 3 min and resuspended in 100 μl ice cold PBS. The cell suspension was stored immediately at 4° C. in the dark. The cells were analyzed on the flow cytometer as soon as possible.
# [2] = target: T1, human TrkA on CellSensor TrkA-NFAT-bla …; assay: FACS on CellSensor TrkA-NFAT-bla CHO-K1 cells (human TrkA), APC goat anti-mouse IgG; y axis without label
# Procedure: as §1
# [3] = target: T2, extracellular domain (ECD) of human TrkA protein, N-terminal flag tag and C-terminal His tag (PHA) (human, UniProt P04629 33-423); assay: indirect ELISA on coated PHA (human TrkA ECD, 1 ug/mL), anti-mouse IgG-HRP, OD450
# T2 construct: Made in 293-F cells and purified by IMAC; also called TrkA ECD protein; TrkA (ECD); not shown: flag tag at the N-terminus (after the signal peptide); His tag at the C-terminus
# Procedure: Hybridoma supernatants were initially screened with human TrkA by indirect ELISA. Briefly, purified PHA was diluted to a final concentration of 1 μg/mL in PBS buffer. 100 μL of the diluted antigen was added to each well of a 96-well plate, and incubated at 4° C. overnight. The plates were washed with PBST (PBS comprising 0.05% Tween-20, pH 7.4) for three times, then 200 μl/well of 2% bovine serum albumin (BSA) diluted in PBST was added and incubated at room temperature for 2 hours for blocking. The blocking solution was removed, and the plate was washed 3 times with 300 μl PBST. The diluted solutions of primary and secondary antibodies, along with substrate solution was prepared. 100 μl of diluted primary antibody was pipetted in each well and was incubated for 1 hour at room temperature. The content in the wells was removed and washed for 3 times with 300 μl PBST buffer. PBS was removed from the plates. 100 μl of diluted Peroxidase-AffiniPure Goat Anti-Mouse IgG was added in each well and incubated for 1 hour at 37° C. The content in the wells was removed and the wells were washed for 3 times with 300 μl PBST. 100 μl of TMB substrate solution was added to the wells. After sufficient color development, 100 μl of stop solution was added to the wells to terminate the reaction. Read the absorbance (OD: 450) of each well with a microplate reader and the data were analyzed.
# [4] = target: T1, human TrkA on CellSensor TrkA-NFAT-bla …; assay: cell-based or functional assay
# [5] = target: T1, human TrkA on CellSensor TrkA-NFAT-bla …; assay: cell-based or functional assay; remark: listed apart in the source
# [6] = target: T2, extracellular domain (ECD) of human …; assay: BLI (ForteBio)
# [7] = target: T1, human TrkA on CellSensor TrkA-NFAT-bla …; assay: cell-based or functional assay; remark: listed apart in the source
# [8] = target: T2, extracellular domain (ECD) of human …; assay: affinity after affinity maturation; method not stated in Example 5
# [9] = target: T2, extracellular domain (ECD) of human …; assay: BLI (Octet Red384), as in Example 4
# Procedure: The bio-layer interferometry (BLI) method was used to determine the affinities of the antibodies, employing Octet Red384. Briefly, anti-human Fc-coated biosensor AHQ tips (ForteBio) were put into PBS with 0.1% w/v bovine serum albumin and 0.05% Tween-20 for a minimum of 10 min in the pre-wetting plate. The purified antibodies (100 nM in PBS with 0.1% bovine serum albumin and 0.05% Tween-20 (assay buffer)) were captured on AHQ biosensors (ForteBio) at a level of about 1 nm. The loaded biosensors were washed with an assay buffer to remove any unbound protein. Then, the association rates, dissociation rates and response were measured, using an antigen of 100 nM (in PBS with 0.1% bovine serum albumin and 0.05% Tween-20).
# Two rounds of humanizations were further performed. […] In the second round, many other variants were further constructed (including several mutations in the CDR sequences). Quickchange based site-directed mutagenesis or overlap PCR were performed to create expression plasmid of new versions of 2nd round humanized antibodies. All recombinant antibodies were expressed and purified as described in Example 1, then measured antigen binding affinity using BLI technology with the Octet Red384 instrument as mentioned above. To compare the functional activity of humanized antibodies with chimeric antibodies, NFAT assay was also performed.
# [10] = target: T2, extracellular domain (ECD) of human …; assay: SPR (BIAcore T200), antibody on protein G chip, PHA 0.625-20 nM injected
# Procedure: The binding kinetics and affinities of the humanized antibodies were determined using a BIAcoreT200™ SPR system. Approximately 30 RU of the humanized antibody was immobilized on a protein G sensor chip and serial 2-fold dilutions of the PHA (0.625-20 nM) in 1×HBS-EP+ buffer were injected over the antibody-bound surface at a flow rate of 30 μl/min.
# T2 sequence (P04629 33-423): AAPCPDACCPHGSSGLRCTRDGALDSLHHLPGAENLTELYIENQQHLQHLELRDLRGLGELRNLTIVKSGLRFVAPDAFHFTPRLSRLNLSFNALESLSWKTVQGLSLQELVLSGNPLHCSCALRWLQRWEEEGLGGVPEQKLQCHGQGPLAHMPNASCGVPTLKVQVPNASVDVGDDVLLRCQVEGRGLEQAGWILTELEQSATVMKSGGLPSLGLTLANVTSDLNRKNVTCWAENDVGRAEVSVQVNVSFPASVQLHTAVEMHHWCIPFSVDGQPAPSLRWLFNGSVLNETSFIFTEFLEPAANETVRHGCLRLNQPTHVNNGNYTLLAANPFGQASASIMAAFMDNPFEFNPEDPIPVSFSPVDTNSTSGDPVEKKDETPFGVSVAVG
# T1 sequence (P04629 33-796 limits assumed, form in doubt): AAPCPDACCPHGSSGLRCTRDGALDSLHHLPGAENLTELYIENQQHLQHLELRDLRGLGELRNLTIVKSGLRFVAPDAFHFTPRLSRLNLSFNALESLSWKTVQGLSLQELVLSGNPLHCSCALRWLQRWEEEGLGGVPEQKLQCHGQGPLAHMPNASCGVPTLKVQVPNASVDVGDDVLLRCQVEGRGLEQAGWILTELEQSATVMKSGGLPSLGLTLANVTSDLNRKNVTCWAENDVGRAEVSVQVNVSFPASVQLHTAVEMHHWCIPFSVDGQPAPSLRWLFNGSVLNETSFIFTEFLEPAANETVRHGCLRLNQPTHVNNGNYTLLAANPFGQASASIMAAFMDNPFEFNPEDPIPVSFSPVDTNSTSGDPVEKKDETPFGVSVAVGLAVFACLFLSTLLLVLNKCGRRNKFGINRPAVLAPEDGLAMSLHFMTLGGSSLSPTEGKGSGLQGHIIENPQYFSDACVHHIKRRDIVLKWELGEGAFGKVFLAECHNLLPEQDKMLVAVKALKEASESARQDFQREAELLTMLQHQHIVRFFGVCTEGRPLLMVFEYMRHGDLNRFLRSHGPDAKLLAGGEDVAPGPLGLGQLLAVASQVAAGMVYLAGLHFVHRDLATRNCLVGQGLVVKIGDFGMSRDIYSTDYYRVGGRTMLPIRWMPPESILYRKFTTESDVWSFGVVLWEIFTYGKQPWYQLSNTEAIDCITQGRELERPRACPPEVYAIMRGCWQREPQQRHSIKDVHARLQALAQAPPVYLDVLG
binder,measurement,setting,value
B1,EC50,[1],0.341 µg/mL
same,Top,[2],239000
same,EC50,[3],0.37 nM
same,Top,[3],2.16 OD450
same,Top; inhibition of NGF-induced TrkA activation in TrkA-NFAT-bla CHO-K1 reporter cells,[4],0.862 Response Ratio
same,IC50 in NFAT antagonistic assay,[5],0.411 nM
B2,Kd,[6],11.9 nM
same,koff,[6],0.00441 s⁻¹
same,kon,[6],371000 M⁻¹ s⁻¹
B3,NFAT IC50,[7],170 nM
same,Kd,[8],0.583 nM
same,koff,[8],0.000174 s⁻¹
same,kon,[8],299000 M⁻¹ s⁻¹
B4,Kd,[6],18.4 nM
same,koff,[6],0.00764 s⁻¹
same,kon,[6],415000 M⁻¹ s⁻¹
B5,Kd,[6],11.6 nM
same,koff,[6],0.00518 s⁻¹
same,kon,[6],446000 M⁻¹ s⁻¹
B6,Kd,[9],10.6 nM
same,koff,[9],0.00207 s⁻¹
same,kon,[9],196000 M⁻¹ s⁻¹
same,NFAT IC50,[7],269 nM
B7,NFAT IC50,[7],66.5 nM
same,Kd,[10],1.87 nM
same,koff,[10],0.000413 s⁻¹
same,kon,[10],220000 M⁻¹ s⁻¹
B8,Kd,[6],16.6 nM
same,koff,[6],0.00811 s⁻¹
same,kon,[6],490000 M⁻¹ s⁻¹
B9,NFAT IC50,[7],124 nM
same,Kd,[8],0.259 nM
same,koff,[8],9.51e-05 s⁻¹
same,kon,[8],367000 M⁻¹ s⁻¹
B10,Kd,[6],12.3 nM
same,koff,[6],0.00471 s⁻¹
same,kon,[6],383000 M⁻¹ s⁻¹
B11,Kd,[6],23.8 nM
same,koff,[6],0.0113 s⁻¹
same,kon,[6],473000 M⁻¹ s⁻¹
B12,Kd,[6],7.23 nM
same,koff,[6],0.00351 s⁻¹
same,kon,[6],486000 M⁻¹ s⁻¹
B13,Kd,[9],1.38 nM
same,koff,[9],0.000331 s⁻¹
same,kon,[9],240000 M⁻¹ s⁻¹
same,NFAT IC50,[7],188 nM
same,Kd,[10],2.77 nM
same,koff,[10],0.00045 s⁻¹
same,kon,[10],163000 M⁻¹ s⁻¹
B14,NFAT IC50,[7],266 nM
same,Kd,[8],0.174 nM
same,koff,[8],5.21e-05 s⁻¹
same,kon,[8],300000 M⁻¹ s⁻¹
B15,EC50,[1],0.326 µg/mL
same,Top,[2],268000
same,EC50,[3],0.428 nM
same,Top,[3],1.65 OD450
